One molecule from patent US20220047684A1, “ENZYMES AND METHODS FOR PREVENTING AND TREATING […] IN ANIMALS” (Ecto Development Corporation, priority 2020, published 2022) can be followed below.

Series [1] in a line: pNPA method esterase (carboxylesterase) activity assay of spore productions. Conditions: 30° C. for 30 minutes, absorbance at 400. The class given is biochemical. As for the experimental part:
Each of the identified enzymes were evaluated for esterase activity assay using pNBA method described below. Determination of carboxylesterase activity of cargo enzyme in Bacillus thuringiensis spore productions or of free enzyme productions. Three active carboxylesterases cloned into pBCm (Bt EO) and pET28a (E. coli BL21) systems: pnbA (B. subtilis), PytH2 (Sphingobium wenxiniae strain), and MsE1 (Methylobacterium sp). p-Nitrophenyl acetate was the substrate in assays for esterase activity. The hydrolysis of p-nitrophenyl acetate releases p-nitrophenol and acetate, and while p-nitrophenyl acetate is colorless, p-nitrophenol is yellow.
6 mg p-Nitrophenyl acetate (pNPA, CAS #830-03-5, MW: 181.1 g/mol) was weighed and dissolved in 1 mL methanol (CAS #67-56-1, MW: 32.04 g/mol). Stored at −20° C. and kept on ice when preparing reactions.
8.0 g sodium chloride (NaCl, CAS #7647-14-5, MW: 58.44 g/mol), 1.44 g sodium phosphate dibasic was dissolved (Na2HPO4, CAS #7558-79-4, MW: 141.96 g/mol), and 0.24 g potassium phosphate monobasic (KH2PO4, CAS #7778-77-0, 136.09 g/mol) in 800 mL DI H20, then adjust pH to 7.4 using hydrochloric acid (HCl, CAS #7647-01-0, MW: 36.46 g/mol). Make 100 mL aliquots and autoclave.
Esterase from rabbit liver (CAS #9016-18-6, Sigma E0887-powder). Store at −20° C. To prepare a stock dissolve 1 mg in 1 mL PBS, kept on ice when using.
Up to 1 mL spore production was pelleted up for 5 min at max speed. Supernatant was discarded without disturbing spore pellet and suspend pellet in ice-cold PBS. Spores kept suspended on ice until use.
The assay was run at 30° C. for 30 minutes. The assay was shaken continuously. Activity was read on (A) 400 BioTek Synergy/HTX microplate reader was used. The results of pNPA hydrolysis are shown in Table 3 depicting carboxylesterase enzyme activity for each of the five strains using pNPA hydrolysis.

A short description of series [2]: Characterisation of purified recombinant PytH2 carboxylesterase on p-nitrophenyl esters. The class given is biochemical. As for the experimental part: Protein is a carboxylesterase from Sphingobium wenxiniae produced by PytH2 recombinant, expressed in E. coli BL21 (DE3) IUBMB: 3.1.1.88 CAS: 9016-18-6. The Chemical Composition of the carboxylesterase has Chemical purity: >90% buffer of 10 mM phosphate (pH 7.4), 2.7 mM KCI, 137 mM NaCI. Post translational procedures produced in a protease deficient E. coli strain and optimized for synthesis. The protein Appearance: clear, colorless solution:
Unit definition: One unit is defined as the amount of enzyme required to generate 1 μmol/min of 4-p-nitrophenol from 4-nitrophenyl-L-acetate at 30° C. and pH 7.4. Specific activity: 15±3 μ/mg
The enzyme is also deactivated by surfactant compounds such as SDS.
An esterase gene (PytH2) of Sphingobium wenxiniae containing an open reading frame (ORF) of 873 bp. The ORF of PytH2 was expressed in Escherichia coli, under the control of the promoter T7. […] E. coli BL21(DE3)/pET28 containing PytH2 expressed a novel 31.4-kDa protein corresponding to PytH2 in an N-terminal fusion with the His-tag peptide. The recombinant Sphingobium wenxiniae PytH2 protein was purified to electrophoretic homogeneity in a one-step affinity chromatography procedure on Ni-NTA Resin. The optimum pH and temperature of the purified enzyme were 7.0 and 37 degrees C., respectively. […] It was also active on pNP-butyrate(C(4) and pNPcaproate(C(6)).

B1: E3: carboxylesterase PytH2 (pytH) from Sphingobium wenxiniae, amino acid SEQ. ID No. 3, DNA SEQ. ID No. 6; recombinant, His-tagged (protein, listed as Sphingobium wenxiniae)
chain: MTVTDIILIHGALNRGACYDAVVPLLEARGYRVHAPDLTGHTPGDGGHLSVVDMEHYTRPVADILARAEGQSILLGHSLGGASISWLAQHHYDKVAGLIYLTAVLTAPGITPETFVLPGEPNRGTPHALDLIQPVDEGRGLQADFSRLERLREVFMGDYPGEGMPPAEQFIQTQSTVPFGTPNPMEGRALEIPRLYEALDDVVIPIAVQRQMQKEFPGPVAVVSLPASHAPYYSMPERLAEAIADFADAPAEYRQTATKAGPDRPAGADGGRADRADLP
modifications: His tag
notes: ID No. 6; recombinant, His-tagged
Regarding B1, in series [1], the pNPA hydrolysis worked out at 26.3 ± 0.9 nmol pNPA/min/1E+8 spores. In series [2], the “cofactor requirement for activity” value is given as “does not require a cofactor” and the “stability of the enzyme” value is “quite stable”. The “activity after heat incubation” value in series [2] (after incubation at 70° C.) is “inactive”. Also, the “effect of metal ions on the enzyme” value in series [2] (metal ions, can recover activity) is reported as “strongly inhibited”. The Specific activity in series [2] (one unit = 1 μmol/min 4-p-nitrophenol from 4-nitrophenyl-L-acetate at 30° C. and pH 7.4) is reported as 15±3 μ/mg. Also, the “substrate preference among pNP (p-nitrophenyl) esters: pNP-acetate (C(2))” value in series [2] (pNP-acetate) is given as “best substrate”. In series [2] (pNP-butyrate(C(4))), the “activity on pNP-butyrate” value is listed as “active”. Moreover, the “activity on pNPcaproate” value in series [2] (pNPcaproate(C(6))) was “active”. Also, in series [2] (purified enzyme), the “optimum pH” value came out at 7.0 and the optimum temperature is on record as 37 degrees C. The “effect of surfactant compounds on the enzyme” value in series [2] (surfactant compounds such as SDS) is reported as “deactivated”.
